First the molecules themselves.
B1: NLV2 TCR alpha chain (CDR3α only) (parent)
chain: AGPMKTSYDKVI
partner: MLVPMVATV
B2: NLV2 TCR alpha chain (CDR3α only) (parent)
chain: AGPMKTSYDKVI
partner: NLVGMVATV

The variants in one assay derive from B1. Description: T-Switch: Jurkat TCRβ−/− cells expressing a CDR3 saturation-mutagenesis library, stained with two peptide-HLA-A*02:01 tetramers (original and novel peptide) plus anti-CD3, FACS-sorted into four gates, gDNA sequenced. As to conditions: with HLA-A*02:01 with peptide … (NLV 3-1, the novel peptide), tetramers 1 µg/mL, 30 min on ice, SP, DP and SW gates expanded about 10 days between rounds ('two to three rounds of selection' in the Methods), gate SW: higher = more of the variant in the gate that binds the novel peptide and not the original one = switched binding. Fold enrichment of the CDR3 variant in one FACS gate of a two-tetramer stain, unresolved parent, parent is a CDR3 fragment, scale: fold enrichment, numbering: sequential-on-construct, sequence starts at 1.
On to […] (CDR3 as printed); D9G derived by comparing it with the table's wild-type CDR3 AGPMKTSYDKVI, for which the enrichment amounted to 0.
Same read-out and setting: in the case of […] (CDR3 as printed); G2P derived by comparing it with the table's wild-type CDR3 AGPMKTSYDKVI it was 0; in that of […] (CDR3 as printed); K10G derived by comparing it with the table's wild-type CDR3 AGPMKTSYDKVI, 0.
Take […] (CDR3 as printed); K10T derived by comparing it with the table's wild-type CDR3 AGPMKTSYDKVI: the enrichment came out at 0.
On the same count and under the same terms, as for […] (CDR3 as printed); K10E derived by comparing it with the table's wild-type CDR3 AGPMKTSYDKVI, the figure is 0.402; as for […] (CDR3 as printed); I12R derived by comparing it with the table's wild-type CDR3 AGPMKTSYDKVI, 0.
Same read-out and setting: as for […] (CDR3 as printed); K5Y derived by comparing it with the table's wild-type CDR3 AGPMKTSYDKVI, the figure is 0.
As for […] (CDR3 as printed); K10F derived by comparing it with the table's wild-type CDR3 AGPMKTSYDKVI, the enrichment was 0.
Take […] (CDR3 as printed); M4E derived by comparing it with the table's wild-type CDR3 AGPMKTSYDKVI: the enrichment came out at 0.
Regarding […] (CDR3 as printed); D9Q derived by comparing it with the table's wild-type CDR3 AGPMKTSYDKVI, the enrichment was 0.
For […] (CDR3 as printed); A1W derived by comparing it with the table's wild-type CDR3 AGPMKTSYDKVI, the enrichment came out at 0.
On to […] (CDR3 as printed); K5S derived by comparing it with the table's wild-type CDR3 AGPMKTSYDKVI, for which the enrichment was found to be 0.
With […] (CDR3 as printed); K5E derived by comparing it with the table's wild-type CDR3 AGPMKTSYDKVI, the enrichment came out at 0.
Turning to […] (CDR3 as printed); I12Y derived by comparing it with the table's wild-type CDR3 AGPMKTSYDKVI, the enrichment is 0.
Still for that read-out and setting: in the case of […] (CDR3 as printed); G2M derived by comparing it with the table's wild-type CDR3 AGPMKTSYDKVI it was 0; in that of […] (CDR3 as printed); A1H derived by comparing it with the table's wild-type CDR3 AGPMKTSYDKVI, 0.
Consider […] (CDR3 as printed); K10H derived by comparing it with the table's wild-type CDR3 AGPMKTSYDKVI, for which the enrichment came to 0.
As for […] (CDR3 as printed); K5C derived by comparing it with the table's wild-type CDR3 AGPMKTSYDKVI, the enrichment was determined as 0.
On to […] (CDR3 as printed); K5N derived by comparing it with the table's wild-type CDR3 AGPMKTSYDKVI, for which the enrichment is 0.
On the same count and under the same terms, in the case of […] (CDR3 as printed); D9N derived by comparing it with the table's wild-type CDR3 AGPMKTSYDKVI it was 0; in that of […] (CDR3 as printed); K5L derived by comparing it with the table's wild-type CDR3 AGPMKTSYDKVI, 0.
As for […] (CDR3 as printed); K10A derived by comparing it with the table's wild-type CDR3 AGPMKTSYDKVI, the enrichment came out at 0.
For the variant […] (CDR3 as printed); G2K derived by comparing it with the table's wild-type CDR3 AGPMKTSYDKVI, the enrichment was 0.
In the case of […] (CDR3 as printed); A1P derived by comparing it with the table's wild-type CDR3 AGPMKTSYDKVI, the enrichment came to 0.
As for […] (CDR3 as printed); D9L derived by comparing it with the table's wild-type CDR3 AGPMKTSYDKVI, the enrichment was determined as 0.
For […] (CDR3 as printed); A1T derived by comparing it with the table's wild-type CDR3 AGPMKTSYDKVI, the enrichment turned out to be 0.
Take […] (CDR3 as printed); K10C derived by comparing it with the table's wild-type CDR3 AGPMKTSYDKVI: the enrichment was determined as 0.
Turning to […] (CDR3 as printed); A1S derived by comparing it with the table's wild-type CDR3 AGPMKTSYDKVI, the enrichment is 0.
In the case of […] (CDR3 as printed); D9F derived by comparing it with the table's wild-type CDR3 AGPMKTSYDKVI, the enrichment was found to be 0.
Turning to […] (CDR3 as printed); K10S derived by comparing it with the table's wild-type CDR3 AGPMKTSYDKVI, the enrichment worked out at 1.59.
For the variant […] (CDR3 as printed); D9K derived by comparing it with the table's wild-type CDR3 AGPMKTSYDKVI, the enrichment was determined as 0.
As to […] (CDR3 as printed); G2S derived by comparing it with the table's wild-type CDR3 AGPMKTSYDKVI, the enrichment was determined as 0.
Take […] (CDR3 as printed); A1C derived by comparing it with the table's wild-type CDR3 AGPMKTSYDKVI: the enrichment is 0.
Same read-out and setting: in the case of […] (CDR3 as printed); G2T derived by comparing it with the table's wild-type CDR3 AGPMKTSYDKVI it was 0.
As for […] (CDR3 as printed); D9M derived by comparing it with the table's wild-type CDR3 AGPMKTSYDKVI, the enrichment was determined as 0.
Still for that read-out and setting: in the case of […] (CDR3 as printed); I12F derived by comparing it with the table's wild-type CDR3 AGPMKTSYDKVI it was 0.

In a further assay the parent is B2. Described as above. As to conditions: with HLA-A*02:01 with peptide … (NLV 2-2, the original bait), tetramers 1 µg/mL, 30 min on ice, DP and SW gates expanded about 10 days between rounds ('two to three rounds of selection' in the Methods), gate SP: higher = more of the variant in the gate that binds the original peptide and not the novel one = retained original binding. Fold enrichment of the CDR3 variant in one FACS gate of a two-tetra, unresolved parent, parent is a CDR3 fragment, scale: fold enrichment, numbering: sequential-on-construct, sequence ….
As for […] (CDR3 as printed); P3W derived by comparing it with the table's wild-type CDR3 AGPMKTSYDKVI, the enrichment is 0.
The same measure, in the same setting: in the case of […] (CDR3 as printed); G2H derived by comparing it with the table's wild-type CDR3 AGPMKTSYDKVI it was 0; in that of […] (CDR3 as printed); K10N derived by comparing it with the table's wild-type CDR3 AGPMKTSYDKVI, 0.
With […] (CDR3 as printed); I12M derived by comparing it with the table's wild-type CDR3 AGPMKTSYDKVI, the enrichment is 0.
In the case of […] (CDR3 as printed); V11C derived by comparing it with the table's wild-type CDR3 AGPMKTSYDKVI, the enrichment was determined as 0.
As for […] (CDR3 as printed); D9R derived by comparing it with the table's wild-type CDR3 AGPMKTSYDKVI, the enrichment worked out at 0.
Regarding […] (CDR3 as printed); M4R derived by comparing it with the table's wild-type CDR3 AGPMKTSYDKVI, the enrichment stood at 0.
Consider […] (CDR3 as printed); T6L derived by comparing it with the table's wild-type CDR3 AGPMKTSYDKVI, for which the enrichment worked out at 0.
In the case of […] (CDR3 as printed); V11A derived by comparing it with the table's wild-type CDR3 AGPMKTSYDKVI, the enrichment amounted to 1.13.
As for […] (CDR3 as printed); I12R derived by comparing it with the table's wild-type CDR3 AGPMKTSYDKVI, the enrichment stood at 0.
As to […] (CDR3 as printed); S7G derived by comparing it with the table's wild-type CDR3 AGPMKTSYDKVI, the enrichment was found to be 0.
Same read-out and setting: in the case of […] (CDR3 as printed); T6D derived by comparing it with the table's wild-type CDR3 AGPMKTSYDKVI it was 0.
As for […] (CDR3 as printed); T6S derived by comparing it with the table's wild-type CDR3 AGPMKTSYDKVI, the enrichment was 0.
As for […] (CDR3 as printed); G2P derived by comparing it with the table's wild-type CDR3 AGPMKTSYDKVI, the enrichment worked out at 0.351.
Same read-out and setting: as for […] (CDR3 as printed); K10V derived by comparing it with the table's wild-type CDR3 AGPMKTSYDKVI, the figure is 0.
As for […] (CDR3 as printed); Y8F derived by comparing it with the table's wild-type CDR3 AGPMKTSYDKVI, the enrichment is 0.
As for […] (CDR3 as printed); G2A derived by comparing it with the table's wild-type CDR3 AGPMKTSYDKVI, the enrichment worked out at 0.952.
On to […] (CDR3 as printed); K5T derived by comparing it with the table's wild-type CDR3 AGPMKTSYDKVI, for which the enrichment worked out at 4.91.
Turning to […] (CDR3 as printed); S7H derived by comparing it with the table's wild-type CDR3 AGPMKTSYDKVI, the enrichment came to 0.
On the same count and under the same terms, in the case of […] (CDR3 as printed); K10T derived by comparing it with the table's wild-type CDR3 AGPMKTSYDKVI it was 0.
Turning to […] (CDR3 as printed); P3N derived by comparing it with the table's wild-type CDR3 AGPMKTSYDKVI, the enrichment amounted to 0.173.
On the same count and under the same terms, as for […] (CDR3 as printed); P3C derived by comparing it with the table's wild-type CDR3 AGPMKTSYDKVI, the figure is 0.
For the variant […] (CDR3 as printed); V11M derived by comparing it with the table's wild-type CDR3 AGPMKTSYDKVI, the enrichment was determined as 0.
For the variant […] (CDR3 as printed); T6M derived by comparing it with the table's wild-type CDR3 AGPMKTSYDKVI, the enrichment was 0.
As for […] (CDR3 as printed); P3R derived by comparing it with the table's wild-type CDR3 AGPMKTSYDKVI, the enrichment came to 0.
Take […] (CDR3 as printed); M4N derived by comparing it with the table's wild-type CDR3 AGPMKTSYDKVI: the enrichment is 0.
In the case of […] (CDR3 as printed); M4S derived by comparing it with the table's wild-type CDR3 AGPMKTSYDKVI, the enrichment stood at 7.99.
In the case of […] (CDR3 as printed); K10P derived by comparing it with the table's wild-type CDR3 AGPMKTSYDKVI, the enrichment came out at 0.
[…] (CDR3 as printed); I12W derived by comparing it with the table's wild-type CDR3 AGPMKTSYDKVI: the enrichment is 0.
Turning to […] (CDR3 as printed); S7Y derived by comparing it with the table's wild-type CDR3 AGPMKTSYDKVI, the enrichment worked out at 0.
Same read-out and setting: as for […] (CDR3 as printed); P3I derived by comparing it with the table's wild-type CDR3 AGPMKTSYDKVI, the figure is 1.59; as for […] (CDR3 as printed); K10R derived by comparing it with the table's wild-type CDR3 AGPMKTSYDKVI, 0; as for […] (CDR3 as printed); A1S derived by comparing it with the table's wild-type CDR3 AGPMKTSYDKVI, 0.551.
For […] (CDR3 as printed); D9E derived by comparing it with the table's wild-type CDR3 AGPMKTSYDKVI, the enrichment stood at 0.
In the case of […] (CDR3 as printed); G2S derived by comparing it with the table's wild-type CDR3 AGPMKTSYDKVI, the enrichment stood at 0.
On to […] (CDR3 as printed); G2I derived by comparing it with the table's wild-type CDR3 AGPMKTSYDKVI, for which the enrichment worked out at 0.
Take […] (CDR3 as printed); S7W derived by comparing it with the table's wild-type CDR3 AGPMKTSYDKVI: the enrichment worked out at 0.
On the same count and under the same terms, in the case of […] (CDR3 as printed); V11H derived by comparing it with the table's wild-type CDR3 AGPMKTSYDKVI it was 0; in that of […] (CDR3 as printed); K5Y derived by comparing it with the table's wild-type CDR3 AGPMKTSYDKVI, 0.
The same measure, in the same setting: as for […] (CDR3 as printed); D9C derived by comparing it with the table's wild-type CDR3 AGPMKTSYDKVI, the figure is 0; as for […] (CDR3 as printed); T6H derived by comparing it with the table's wild-type CDR3 AGPMKTSYDKVI, 0.
Turning to […] (CDR3 as printed); I12Q derived by comparing it with the table's wild-type CDR3 AGPMKTSYDKVI, the enrichment was determined as 0.
On the same count and under the same terms, as for […] (CDR3 as printed); S7L derived by comparing it with the table's wild-type CDR3 AGPMKTSYDKVI, the figure is 0; as for […] (CDR3 as printed); P3K derived by comparing it with the table's wild-type CDR3 AGPMKTSYDKVI, 0.
Take […] (CDR3 as printed); K5P derived by comparing it with the table's wild-type CDR3 AGPMKTSYDKVI: the enrichment came out at 9.21.
Turning to […] (CDR3 as printed); T6F derived by comparing it with the table's wild-type CDR3 AGPMKTSYDKVI, the enrichment turned out to be 0.
As for […] (CDR3 as printed); K5W derived by comparing it with the table's wild-type CDR3 AGPMKTSYDKVI, the enrichment was determined as 5.12.
Still for that read-out and setting: in the case of […] (CDR3 as printed); Y8M derived by comparing it with the table's wild-type CDR3 AGPMKTSYDKVI it was 0.

For the origin of these results see paper PMC13397619.
